In this test the target is FPRL1 (formyl peptide receptor-like 1) inhibitory protein (FLIPr) (S. aureus) (UniProt Q2FZC0). The experiment in a line: BLI. For orientation: Biolayer interferometry detects binding as a change in optical thickness at a sensor tip.
Sequence of FPRL1 (formyl peptide receptor-like 1) inhibitory protein (FLIPr) (S. aureus) (Q2FZC0 25-133): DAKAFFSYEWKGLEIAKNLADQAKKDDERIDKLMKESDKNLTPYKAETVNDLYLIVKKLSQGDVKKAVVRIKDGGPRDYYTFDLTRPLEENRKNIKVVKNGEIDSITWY
With “complement component 1q subcomponent A (C1QA) (from UniProt P02745 23-245) (natural protein)”, the Kd was determined as 3.2 nM.

“complement component 1q subcomponent B (C1QB) (from UniProt P02746 28-253) (natural protein)”: the Kd worked out at 2.1 nM.

Take “complement component 1q subcomponent C (C1QC) (from UniProt P02747 29-245) (natural protein)”: the Kd amounted to 9.9 nM.

As a reminder, the Kd is the concentration at which binding is half-saturated. A lower Kd goes with higher affinity.

For the origin of these results see publication PMC4908583.
